Tests used:
HER2 [1] = molecular target: T1, HER2 (human, UniProt P04626); experiment: BLI, 30C, ExpiCHO-expressed
HER2 [2] = molecular target: T1, HER2; experiment: BLI, 30C, E. coli-expressed

Kd (HER2 [1]): 280 pM | Kd (HER2 [2]): 1500 pM
B1: LH_S-C (antibody)
chain 1: EVQLVESGGGLVQPGGSLRLSVAASGFNIKDTYIHWVRQAPGKGLEWVARIYPTNGYTRYADSVKGRFTISADTSKNTAYLQMNSLRAEDTAVYYASRWGGDGFYCMDYWGQGTLVTVSS
chain 2: not shown
